The target of experiment [1] is T1, bacterially expressed his-tagged canine CD20 protein (amino acids 140–190) (Canis lupus familiaris, UniProt Q3C2E2).
T1 construct: canine CD20, amino acids 140-190 comprising the extracellular domain; also called recombinant canine CD20 protein; His-tagged CD20 protein; source: bacterially expressed, purified by nickel chromatography
In words: ELISA; CHO supernatants (diluted 1:40 or 1:80) on His-tagged CD20 protein or on biotinylated CD20 peptide; detected with peroxidase conjugated protein A, TMB, OD 450 nm. The conditions noted are these: one partner purified.

Experiment [2] concerns the target T2, biotinylated canine CD20 peptide (biotin-SGSGNCDPANPSEKNSLSIQYCGS) (canine, biotin on the N-terminus).
T2 peptide: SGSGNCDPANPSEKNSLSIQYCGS
In words: BLI; with DTT. (Biolayer interferometry detects binding as a change in optical thickness at a sensor tip.)

Experiment [3] has as its target T2, biotinylated canine CD20 peptide …. The experiment can be described thus: BLI; without DTT.
The target of experiment [4] is T3, biotinylated canine CD20 peptide (biotin-SGSGNCDPANPSEKNSLSIQYCGS) (Canis lupus familiaris, biotin on the N-terminus).
T3 construct: spacer between the biotin and the CD20 stretch; also called biotinylated CD20 peptide
T3 chain: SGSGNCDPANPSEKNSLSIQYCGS
The experiment can be described thus: BLI; Octet RED, as a1 but in the presence of DTT; relative Kd. The note with it: both partners purified.

Experiment [5] concerns the target T1, bacterially expressed his-tagged canine …. The experiment can be described thus: immunoblot; purified his-tagged canine CD20 (140-190) after electrophoresis without and with DTT, blotted with NCD1.2. The note with it: both partners purified. A general note: A western blot detects proteins with antibodies after separation by electrophoresis.
Experiment [6] addresses T4, endogenous canine CD20 protein in 3132 canine lymphoma cells (Canis lupus familiaris (Dog) (Canis …, UniProt Q3C2E2)).
T4 construct: canine CD20, endogenous protein; also called authentic canine CD20 protein
In words: immunoblot; lysates or chemical fractions of 3132 canine lymphoma cells, and lysates of H1299 cells transfected with human GFP-CD20, blotted with NCD1.2. The note with it: one partner purified.

The target of experiment [7] is T5, canine CD20 protein in clinically-derived canine cells and tissue (Canis lupus familiaris (Dog) (Canis …, UniProt Q3C2E2)).
T5 construct: canine CD20 on normal B cells and B-cell lymphoma cells of dogs; also called membranous CD20; CD20 in canine tissue
In words: immunostaining of cells or tissue; immunohistochemistry on formalin fixed paraffin embedded canine lymphoma tissue (tissue micro array), heat induced antigen retrieval. The conditions noted are these: one partner purified.

The target in experiment [8] is T3, biotinylated canine CD20 peptide …. The experiment can be described thus: BLI; Octet RED, biotinylated CD20 peptide on streptavidin biosensors, antibody 32 nM to 0.5 nM in solution, 30°C, PBS pH 7.4 with 0.02% Tween 20, 0.005% sodium azide, 100 μg/mL BSA; global fit 1:1; relative Kd; absence of DTT. The note with it: both partners purified.
Experiment [9] has as its target T6, fluorescein-labeled peptide corresponding to human CD20 (NCEPANPSEKNSPSTQYCYS) (Homo sapiens (Human)., fluorescein (FITC) label, position not stated).
T6 construct: also called FITC tagged human CD20 peptide; fluorescent human CD20 peptide
T6 chain: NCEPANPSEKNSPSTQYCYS
The experiment can be described thus: fluorescence polarisation; antibody titrated against 30 nM fluorescein-labeled human CD20 peptide in PBS, 0.05% Tween-20; 1 hr at room temperature, read at 21°C; purified mouse immunoglobulins subtracted as nonspecific binding. The conditions noted are these: both partners purified.

Positions count from the first letter of the chain named.

The results in this text go back to paper PMC4760772, “The Development of a Recombinant scFv Monoclonal Antibody Targeting Canine CD20 for Use in Comparative Medicine” (PLoS ONE, 2016).

T1 sequence (Q3C2E2 140-190): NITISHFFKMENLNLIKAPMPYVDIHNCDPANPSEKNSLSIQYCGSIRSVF
T5 sequence (Q3C2E2 whole entry): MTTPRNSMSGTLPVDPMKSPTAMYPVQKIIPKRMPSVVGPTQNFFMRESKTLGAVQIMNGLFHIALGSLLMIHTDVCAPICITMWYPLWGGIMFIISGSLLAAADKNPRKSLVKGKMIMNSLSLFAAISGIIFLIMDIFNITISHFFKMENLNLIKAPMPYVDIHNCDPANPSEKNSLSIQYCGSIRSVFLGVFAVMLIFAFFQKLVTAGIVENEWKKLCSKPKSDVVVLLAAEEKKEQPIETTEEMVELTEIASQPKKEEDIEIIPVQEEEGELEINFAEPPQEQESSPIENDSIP
T4 sequence (Q3C2E2 whole entry): as above

B1: scFv-3 secreted from CHO cells (scFv, V domains shown)
VH: EVNVVESGGGLVQPGDSLRLSCATSGFTFTDYFMSWVRQPPGKSLEWLGLIRNKVNGYTAEYSASVKGRFTISRDNSRGILYLQMYTLRAEDSATYYCVRASTGTSFVYWGQGTLVTVSA
VL: DIVMTQPPAIMSASPGEKVTMTCSASSSVSYMHWYQQKSGTSPKRWIYDTSKLASGVPDRFSSSGSGTDFTLRISRVEAEDVGVYYCAQNLELPFTFGGGTKLEIK
notes: VL of scFv-3, as in m9; linker, as in m9; VH of scFv-3, as in m9; Cloned into the KpnI-EcoRI sites of pCDNA3.1; also called scFv-3 supernatant
B1: the binding result in experiment [1] was “binds”.

B2: scFv-7 secreted from CHO cells (scFv, V domains shown)
VH: B1 VH with N3Q, V4G
VL: IVMTQAAAFSNPVTLGTSVSISCRSSKSLLHRGFTYLYWYLQRPGQSPQLLIYQMSNLASGVPDRFSSSGSGTDFTLRISRVEAEDVGVYYCAQNLELPFTFGGGTKLELK
notes: VL of scFv-7, as in m10; linker, as in m10; VH of scFv-7, as in m10; Cloned into the KpnI-EcoRI sites of pCDNA3.1; also called scFv-7 supernatant
Consider B2, for which the binding result in experiment [1] is on record as “binds”.

B3: monoclonal antibody NCD1.2 (antibody, V domains shown)
VH: VESGGGLVQPGDSLRLSCATSGFTFTDYFMSWVRQPPGKSLEWLGLIRNKVNGYTAEYSASVKGRFTISRDNSRGILYLQMYTLRAEDSATYYCVRASTGTSFVYWGQGTLVTVSA
VL: AAAFSNPVTLGTSVSISCRSSKSLLHRNGFTYLYWYLQRPGQSPQLLIYQMSNLASGVPDRFSSSGSGTDFTLRISRVEAEDVGVYYCAQNLELPFTFGGGTKLELK
notes: VH cloned from the NCD1.2 hybridoma, as the VH of m9 and m10 (scFv-3 and scFv-7; identical VH genes, identical CDRs); the first residues of the cloned VH come from degenerate PCR primers; constant region of a mouse IgG; VL as the VL of m9 (scFv-3) or of m10 (scFv-7); both light chain mRNAs are made by the hybridoma; mouse light chain constant region; not described; IgG; also called NCD1.2 MAB; …
In general, koff refers to the rate constant with which the complex falls apart. A low value points to a long-lived complex. The Kd is a measure of binding affinity in units of concentration. Consider B3, for which the koff stood at 3.41e-05 s⁻¹ in experiment [2] and 3.19e-05 s⁻¹ in [3]. Further, the Kd in experiment [4] was found to be 0.31 nM; in experiment [8], 0.34 nM. The binding result in experiment [5], in experiment [6], in experiment [7] and in experiment [9] was “binds” throughout.
